How the values were obtained:
Assay in all cases: cell-based or functional assay
human Sirt1 (human) = human Sirt1 (human) (UniProt Q96EB6)
human Sirt2 (human) = human Sirt2 (human) (UniProt Q8IXJ6)
human Sirt3 (human) = human Sirt3 (human) (UniProt Q9NTG7)
human Sirt5 (human) = human Sirt5 (human) (UniProt Q9NXA8)
human Sirt5 (human), sequence (Q9NXA8 whole entry): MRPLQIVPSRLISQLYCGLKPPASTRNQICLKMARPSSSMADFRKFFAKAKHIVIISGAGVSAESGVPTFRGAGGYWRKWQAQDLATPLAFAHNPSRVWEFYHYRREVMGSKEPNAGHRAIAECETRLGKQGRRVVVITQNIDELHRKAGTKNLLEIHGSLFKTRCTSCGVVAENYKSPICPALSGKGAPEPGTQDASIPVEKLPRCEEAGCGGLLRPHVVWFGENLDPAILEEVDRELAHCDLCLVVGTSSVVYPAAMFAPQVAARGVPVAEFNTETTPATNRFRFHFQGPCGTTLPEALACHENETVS

human Sirt1 (human), sequence (Q96EB6 whole entry): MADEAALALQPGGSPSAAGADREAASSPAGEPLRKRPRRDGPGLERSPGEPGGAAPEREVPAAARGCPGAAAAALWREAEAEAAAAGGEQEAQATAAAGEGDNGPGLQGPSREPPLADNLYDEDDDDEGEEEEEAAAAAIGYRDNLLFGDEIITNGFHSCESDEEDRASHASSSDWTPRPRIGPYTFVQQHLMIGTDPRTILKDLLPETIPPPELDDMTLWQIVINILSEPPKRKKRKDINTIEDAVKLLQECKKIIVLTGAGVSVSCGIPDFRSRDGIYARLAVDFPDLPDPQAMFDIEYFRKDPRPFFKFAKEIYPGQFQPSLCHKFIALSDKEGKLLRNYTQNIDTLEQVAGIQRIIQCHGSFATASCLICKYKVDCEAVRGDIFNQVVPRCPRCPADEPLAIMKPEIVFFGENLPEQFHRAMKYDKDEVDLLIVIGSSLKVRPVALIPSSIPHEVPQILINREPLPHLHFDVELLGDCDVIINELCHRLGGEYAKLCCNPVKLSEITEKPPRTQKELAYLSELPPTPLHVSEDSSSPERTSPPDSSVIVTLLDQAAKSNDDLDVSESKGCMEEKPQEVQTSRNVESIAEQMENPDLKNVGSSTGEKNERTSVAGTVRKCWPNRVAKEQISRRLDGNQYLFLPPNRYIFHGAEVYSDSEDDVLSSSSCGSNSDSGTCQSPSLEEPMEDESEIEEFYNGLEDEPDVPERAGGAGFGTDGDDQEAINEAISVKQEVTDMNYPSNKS
human Sirt2 (human), sequence (Q8IXJ6 whole entry): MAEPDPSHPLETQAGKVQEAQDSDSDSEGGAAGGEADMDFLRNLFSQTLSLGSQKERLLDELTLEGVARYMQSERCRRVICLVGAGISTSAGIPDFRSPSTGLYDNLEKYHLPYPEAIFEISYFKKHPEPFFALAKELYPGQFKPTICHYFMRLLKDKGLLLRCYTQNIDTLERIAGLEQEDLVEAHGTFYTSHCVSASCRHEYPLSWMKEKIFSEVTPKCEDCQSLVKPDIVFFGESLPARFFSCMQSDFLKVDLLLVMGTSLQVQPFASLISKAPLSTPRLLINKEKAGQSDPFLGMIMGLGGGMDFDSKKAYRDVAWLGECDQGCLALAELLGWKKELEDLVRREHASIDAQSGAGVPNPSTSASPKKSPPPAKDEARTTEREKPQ
human Sirt3 (human), sequence (Q9NTG7 102-399 limits assumed): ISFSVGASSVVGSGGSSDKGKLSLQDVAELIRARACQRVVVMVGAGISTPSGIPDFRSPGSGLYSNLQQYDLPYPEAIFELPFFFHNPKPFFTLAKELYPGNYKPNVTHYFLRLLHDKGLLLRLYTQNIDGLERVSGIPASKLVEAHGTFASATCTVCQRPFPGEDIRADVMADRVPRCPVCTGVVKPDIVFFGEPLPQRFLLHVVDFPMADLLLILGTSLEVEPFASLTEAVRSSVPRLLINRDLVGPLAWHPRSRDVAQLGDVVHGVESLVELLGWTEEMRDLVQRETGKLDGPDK

IC50 (µM), inhibition of sirtuin deacylase activity (human Sirt1 (human)): 1 µM
IC50 (µM), inhibition of sirtuin deacylase activity (human Sirt2 (human)): 2 µM
IC50 (µM), inhibition of sirtuin deacylase activity (human Sirt3 (human)): 2 µM
IC50 (µM), inhibition of sirtuin deacylase activity (human Sirt5 (human)): > 100 µM
Substance: H3K9 thioacetyl peptide (H3K9 TAc)
